Test results taken from patent US20100323957A1, “NOVEL ASSAY FOR INHIBITORS OF EGFR” (THE REGENTS OF THE UNIVERSITY OF CALIFORNIA THE OFFICE OF …, priority 2007, published 2010).

B1: MIG6(segments 1-2): longer MIG6 peptide, residues 336-412, expressed as Trp DLE fusion; M346 mutated to leucine (protein)
peptide: KSLPSYLNGVLPPTQSFAPDPKYVSSKALQRQNSEGSASKVPCILPIIENGKKVSSTHYYLLPERPPYLDKYEKFFR
B2: MIG6(segments 1-2) Y358A: MIG6 residues 336-412 bearing a mutation within segment 1 (Y358A) (protein)
peptide: KSLPSYLNGVLPPTQSFAPDPKAVSSKALQRQNSEGSASKVPCILPIIENGKKVSSTHYYLLPERPPYLDKYEKFFR
B3: MIG6(M346A): full-length MIG6 with M346A mutation in segment 1, co-expressed in cells (protein)
chain: MSIAGVAAQEIRVPLKTGFLHNGRAMGNMRKTYWSSRSEFKNNFLNIDPITMAYSLNSSAQERLIPLGHASKSAPMNGHCFAENGPSQKSSLPPLLIPPSENLGPHEEDQVVCGFKKLTVNGVCASTPPLTPIKNSPSLFPCAPLCERGSRPLPPLPISEALSLDDTDCEVEFLTSSDTDFLLEDSTLSDFKYDVPGRRSFRGCGQINYAYFDTPAVSAADLSYVSDQNGGVPDPNPPPPQTHRRLRRSHSGPAGSFNKPAIRISNCCIHRASPNSDEDKPEVPPRVPIPPRPVKPDYRRWSAEVTSSTYSDEDRPPKVPPREPLSPSNSRTPSPKSLPSYLNGVAPPTQSFAPDPKYVSSKALQRQNSEGSASKVPCILPIIENGKKVSSTHYYLLPERPPYLDKYEKFFREAEETNGGAQIQPLPADCGISSATEKPDSKTKMDLGGHVKRKHLSYVVSP
modifications: left off: small tags and cut ends
notes: full-length MIG6 with M346A mutation in segment 1, co-expressed in cells
B4: MIG6(F352A): full-length MIG6 with F352A mutation in segment 1, co-expressed in cells (protein)
chain: MSIAGVAAQEIRVPLKTGFLHNGRAMGNMRKTYWSSRSEFKNNFLNIDPITMAYSLNSSAQERLIPLGHASKSAPMNGHCFAENGPSQKSSLPPLLIPPSENLGPHEEDQVVCGFKKLTVNGVCASTPPLTPIKNSPSLFPCAPLCERGSRPLPPLPISEALSLDDTDCEVEFLTSSDTDFLLEDSTLSDFKYDVPGRRSFRGCGQINYAYFDTPAVSAADLSYVSDQNGGVPDPNPPPPQTHRRLRRSHSGPAGSFNKPAIRISNCCIHRASPNSDEDKPEVPPRVPIPPRPVKPDYRRWSAEVTSSTYSDEDRPPKVPPREPLSPSNSRTPSPKSLPSYLNGVMPPTQSAAPDPKYVSSKALQRQNSEGSASKVPCILPIIENGKKVSSTHYYLLPERPPYLDKYEKFFREAEETNGGAQIQPLPADCGISSATEKPDSKTKMDLGGHVKRKHLSYVVSP
modifications: left off: small tags and cut ends
notes: full-length MIG6 with F352A mutation in segment 1, co-expressed in cells
B5: MIG6(Y358A): full-length MIG6 with Y358A mutation in segment 1, co-expressed in cells (protein)
chain: MSIAGVAAQEIRVPLKTGFLHNGRAMGNMRKTYWSSRSEFKNNFLNIDPITMAYSLNSSAQERLIPLGHASKSAPMNGHCFAENGPSQKSSLPPLLIPPSENLGPHEEDQVVCGFKKLTVNGVCASTPPLTPIKNSPSLFPCAPLCERGSRPLPPLPISEALSLDDTDCEVEFLTSSDTDFLLEDSTLSDFKYDVPGRRSFRGCGQINYAYFDTPAVSAADLSYVSDQNGGVPDPNPPPPQTHRRLRRSHSGPAGSFNKPAIRISNCCIHRASPNSDEDKPEVPPRVPIPPRPVKPDYRRWSAEVTSSTYSDEDRPPKVPPREPLSPSNSRTPSPKSLPSYLNGVMPPTQSFAPDPKAVSSKALQRQNSEGSASKVPCILPIIENGKKVSSTHYYLLPERPPYLDKYEKFFREAEETNGGAQIQPLPADCGISSATEKPDSKTKMDLGGHVKRKHLSYVVSP
modifications: left off: small tags and cut ends
notes: full-length MIG6 with Y358A mutation in segment 1, co-expressed in cells

How the values were obtained:
[1] = molecular target: T1, EGFR kinase domain L834R mutant (Homo sapiens, UniProt P00533, L858R); test: Kinase assay in solution, L834R mutant kinase domain; assay type: biochemical; settings: for IC50: L834R at 200 nM, MnCl2 10 mM, read-out: IC50 for inhibition of L834R mutant kinase domain
T1 construct: DNA encoding residues 672-998 of human EGFR was cloned into pFAST BAC HT; made in house; host or cells: Sf9 insect cells (baculovirus)
Description: To test the role of segment 2, we produced a longer peptide (residues 336-412, MIG6(segments 1-2)), and analyzed its effect on a variant of the EGFR kinase domain that contains a mutation (L834R) that renders it constitutively active in the absence of concentration on vesicles. MIG6(segments 1-2) inhibits this mutant kinase domain with an IC50 value of ˜200 nM (FIG. 25a). MIG6(segments 1-2) bearing a mutation within segment 1 (Y358A) inhibited L834R much less efficiently (IC50˜5 μM).
(§1) Kinase assays were performed using methods known in the art and described herein. The substrate peptide was kept at 1 mM in all the experiments. The reported rates are the initial velocities normalized by the kinase concentrations. The wild-type kinase concentrations in the vesicle-based and solution-based assays were […] respectively.
(§2) A continuous enzyme-coupled kinase assay was performed to measure the kinase activity of the proteins as described in Barker et al., ((1995) Biochemistry, Vol. 34(54): 14843-51), with modifications, as described herein. The ATP concentration was kept to 0.5 mM.
(§3) The buffer used contained 10 mM MgCl2, 20 mM Tris, and pH 7.5. […] The substrate peptide was derived from the region spanning Y1173 in EGFR ([…]). All proteins used in this assay contained the N-terminal (His)6 tag unless otherwise noted.

[2] = molecular target: T2, wild-type EGFR kinase domain in solution (Homo sapiens, UniProt P00533); test: Kinase assay in solution, wild-type kinase domain (basal activity); assay type: biochemical; settings: result in words
T2 construct: DNA encoding residues 672-998 of human EGFR was cloned into pFAST BAC HT; made in house; host or cells: Sf9 insect cells (baculovirus)
Description: as §1, §2, §3
The protein concentrations of the EGFR kinase domain used in the assay ranged from 3.5 to 14 μM. The total concentration of the DOGS-NTA-Ni in the bulk solution was kept to 12.5 μM in all assays with DOG-NTA-Ni-containing vesicles. For assays of the kinase domain attached to vesicles, the protein and vesicles were preincubated at 4° C. for ˜5 min.

[3] = molecular target: T3, full-length EGFR (Homo sapiens, UniProt P00533); test: Cell-based assay of EGFR autophosphorylation, Cos-7 cells co-transfected with EGFR and MIG6; settings: co-expression with EGFR, EGF 50 ng/ml, western blot
T3 construct: Cos-7 cells co-transfected with constructs containing full-length EGFR and MIG6; expressed in transfected cells; host or cells: Cos-7
Description: The wild-type and mutant forms of the EGFR kinase domain were expressed and purified using methods known in the art and described in Zhang et al., (2006). The 60-residue MIG6 peptide was expressed in bacteria as a glutathione S-transferase (GST)-fusion protein, purified and treated with the TEV protease to remove the GST-moiety. The wild-type and Y358A mutant MIG6(segments 1-2) peptides were fused to a Trp DLE leader peptide and expressed as inclusion bodies and purified as described. All other MIG6 peptides were produced using solid phase synthesis. […] The binding affinities between the kinase domain and fluorescein-labeled MIG6 peptides were measured by monitoring the change of fluorescence anisotropy during the titration and fitting the data to a single-site binding model. Kinase assays in solution and on vesicle were performed using methods known in the art and described herein. Cell-based inhibition assays were performed using Cos-7 cells co-transfected with constructs containing full-length EGFR and MIG6.
For cell-based assays, Cos-7 cells were co-transfected using Fugene 6 (Roche) with the DNA encoding the N-terminal Flag-tagged EGFR in pcDNA3.1 constructs and the wild-type or mutants of the MIG6 genes with a C-terminal Myc tag (also in pcDNA3.1). Cells were cultured for 36 h after transfection and serum-starved for 12 h. Cells were treated with EGF (50 ng ml^−1) for ˜5 min at 37° C., lysed and subjected to western blot analyses. The levels of total EGFR, EGFR autophosphorylation and MIG6 were probed using the anti-EGFR antibody SC03 (Santa Cruz), anti-phosphotyrosine antibody 4G10 (Upstate) and an anti-Myc antibody (Cell Signalling), respectively.

Row | Molecule | IC50 [1] | inhibition of L834R mutant kinase domain ([1]; result in words) | inhibition of basal activity of wild-type kinase domain in solution [2] | EGF-induced autophosphorylation of EGFR [3]
1 | B1 | ~200 nM | much more strongly | much less potent | 
2 | B2 | ~5000 nM |  | does not show any inhibition | 
3 | B3 |  |  |  | abolishes this effect
4 | B4 |  |  |  | abolishes this effect
5 | B5 |  |  |  | abolishes this effect
